Earlier results on seven molecules are cited in patent publication US20190350851A1, “DOSE RESPONSE, SURFACE MODIFIED NANOTUBES” (MOLECULAR REBAR DESIGN, LLC, priority 2018, published 2019).

B1: Myoglobin (protein, UniProt P02144 2-154, looked up)
Myoglobin: GLSDGEWQLVLNVWGKVEADIPGHGQEVLIRLFKGHPETLEKFDKFKHLKSEDEMKASEDLKKHGATVLTALGGILKKKGHHEAEIKPLAQSHATKHKIPVKYLEFISECIIQVLQSKHPGDFGADAQGAMNKALELFRKDMASNYKELGFQG

The conditions of the first series: in water.
As to Insulin, the “Hydrodynamic Radius” value is 2.1 nm.
Bovine serum albumin: the “Hydrodynamic Radius” value is listed as 7.0 nm.
With `O=C(O)c1cccnc1` [Niacin, reference compound], the “Hydrodynamic Radius” value is listed as 0.33 nm.
In the case of Cytochrome C, the “Hydrodynamic Radius” value is on record as 2.64 nm.
Consider `CN1CCCC1c1cccnc1` (centres unmarked) [Nicotine, reference compound], for which the “Hydrodynamic Radius” value is 0.38 nm.
Consider `NC(=O)CC[C@@H]1NC(=O)[C@H](Cc2ccccc2)NC(=O)[C@H](Cc2ccc(O)cc2)NC(=O)CCSSC[C@@H](C(=O)N2CCC[C@H]2C(=O)N[C@H](CCCN=C(N)N)C(=O)NCC(N)=O)NC(=O)[C@H](CC(N)=O)NC1=O` [Desmopressin, reference compound], for which the “Hydrodynamic Radius” value is given as 0.88 nm.
As to B1, the “Hydrodynamic Radius” value was 3.34 nm.

Still in this series, the particulars now being: in water; listed as bovine serum albumin.
In the case of Bovine serum albumin, the “Hydrodynamic Radius” value was 7 nm.
